Paper PMC6125358, “Mapping the Interface of a GPCR Dimer: A Structural Model of the A2A Adenosine and D2 Dopamine Receptor Heteromer” (Frontiers in Pharmacology, 2018)

B1: 3xHA-D2R^GFP2 (human D2 dopamine receptor, wild type) [human] / human adenosine receptor fused to Renilla luciferase (A2AR^Rluc) [human] (parent)
chain 1: MPIMGSSVYITVELAIAVLAILGNVLVCWAVWLNSNLQNVTNYFVVSLAAADIAVGVLAIPFAITISTGFCAACHGCLFIACFVLVLTQSSIFSLLAIAIDRYIAIRIPLRYNGLVTGTRAKGIIAICWVLSFAIGLTPMLGWNNCGQPKEGKNHSQGCGEGQVACLFEDVVPMNYMVYFNFFACVLVPLLLMLGVYLRIFLAARRQLKQMESQPLPGERARSTLQKEVHAAKSLAIIVGLFALCWLPLHIINCFTFFCPDCSHAPLWLMYLAIVLSHTNSVVNPFIYAYRIREFRQTFRKIIRSHVLRQQEPFKAAGTSARVLAAHGSDGEQVSLRLNGHPPGVWANGSAPHPERRPNGYALGLVSGGSAQESQGNTGLPDVELLSHELKGVCPEPPGLDDPLAQDGAGVS
chain 2: MDPLNLSWYDDDLERQNWSRPFNGSDGKADRPHYNYYATLLTLLIAVIVFGNVLVCMAVSREKALQTTTNYLIVSLAVADLLVATLVMPWVVYLEVVGEWKFSRIHCDIFVTLDVMMCTASILNLCAISIDRYTAVAMPMLYNTRYSSKRRVTVMISIVWVLSFTISCPLLFGLNNADQNECIIANPAFVVYSSIVSFYVPFIVTLLVYIKIYIVLRRRRKRVNTKRSSRAFRAHLRAPLKGNCTHPEDMKLCTVIMKSNGSFPVNRRRVEAARRAQELEMEMLSSTSPPERTRYSPIPPSHHQLTLPDPSHHGLHSTPDSPAKPEKNGHAKDHPKIAKIFEIQTMPNGKTRTSLKTMSRRKLSQQKEKKATQMLAIVLGVFIICWLPFFITHILNIHCDCNIPPVLYSAFTWLGYVNSAVNPIIYTTFNIEFRKAFLKILHC

Variants of: B1
Assay: BRET2 saturation assay
Conditions: with human A2A adenosine receptor fused to Renilla luciferase (A2AR^Rluc) [human]; height of the fitted saturation curve read at x = 6 AU (GFP2-GFP2_0)/Rluc; co-expressed in cells; DeepBlueC substrate, 10 min incubation; read off a plot

Variant	response (netBRET2 ratio)
chain 2 L207A K211A	0.048
chain 2 Y192A	0.056
